Test results as given in PMC10705477 (bioRxiv, 2023).
Changes are numbered by the printed parent chain. Names may count otherwise.

B1: γ protein of the E. coli clamp loader, truncated form (residues 1–373) (domain or fragment)
chain: MSYQVLARKWRPQTFADVVGQEHVLTALANGLSLGRIHHAYLFSGTRGVGKTSIARLLAKGLNCETGITATPCGVCDNCREIEQGRFVDLIEIDAASRTKVEDTRDLLDNVQYAPARGRFKVYLIDEVHMLSRHSFNALLKTLEEPPEHVKFLLATTDPQKLPVTILSRCLQFHLKALDVEQIRHQLEHILNEEHIAHEPRALQLLARAAEGSLRDALSLTDQAIASGDGQVSTQAVSAMLGTLDDDQALSLVEAMVEANGERVMALINEAAARGIEWEALLVEMLGLLHRIAMVQLSPAALGNDMAAIELRMRELARTIPPTDIQLYYQTLLIGRKELPYAPDRRMGVEMTLLRALAFHPRMPLPEPEVPRQ
B2: γ-K141A (domain or fragment)
chain: B1 chain with K141A

Columns and labels:
[1] = molecular target: the molecule itself; experiment: cryo-EM structure
[2] = molecular target: the molecule itself; experiment: co-purification on an anion-exchange column

Protein	binding result [1]	binding result [2]
B1	binds	
B2		binds
